Seven molecules from paper PMC8265641, “Enterococcal PrgU Provides Additional Regulation of Pheromone-Inducible Conjugative Plasmids” can be followed below.

Series [1] concerns the target PrgU-His (PrgU with C-terminal His tag) (Enterococcus faecalis (plasmid pCF10)). The series can be described thus: GEMMA (gas-phase electrophoretic mobility macromolecule analysis); main SEC peak of PrgU-His diluted to 0.01 mg/ml in 20 mM ammonium acetate, pH 7.8; self-association, dimer and monomer.
For series [2] the target is unchanged. Put plainly: SEC-MALS; 200 ul PrgU-His at 1 mg/ml on Superdex 200 10/300 GL Increase, 20 mM potassium phosphate pH 7.0, 150 mM NaCl; self-association, dimer. In general terms: SEC sorts molecules by how far they enter the pores of the column.
In the next series the target is PrgU-His (Enterococcus faecalis plasmid pCF10, UniProt Q5G3Q2 1-118). Put plainly: MST; MST: 20 mM KPi pH 7.0, 150 mM NaCl, 0.05% Tween 20, 0.1 U/ul RNase inhibitor, ~25 C; EMSA: 20 min at ~25 C, 1% agarose run at 4 C, buffer as previously described (not given). Particulars: protein: recombinant, tags: C-terminal 10xHis with 3C protease site. Background: In EMSA bound probe runs differently from free probe, usually more slowly.

By stoichiometry N is commonly meant a count of units in the complex or per binding partner. On to “PrgU-His (PrgU with C-terminal His tag) (natural protein)”, for which the stoichiometry N in series [1] and in series [2] was 2 each time.
With ACTCGTAAGAGCCGTGCAAACAACGTGTTGCATGGCTCTTTTTCTAC (ssDNA) [IRS2 ssDNA], the binding result with PrgU-His is “no binding”.

B1: IRS2 dsDNA (dsDNA)
DNA 1: ACTCGTAAGAGCCGTGCAAACAACGTGTTGCATGGCTCTTTTTCTAC
DNA 2: GTAGAAAAAGAGCCATGCAACACGTTGTTTGCACGGCTCTTACGAGT
With B1, in the series with PrgU-His (blunt), the binding result is recorded as “no binding”.
For the molecule ACUCGUAAGAGCCGUGCAAACAACGUGUUGCAUGGCUCUUUUUCUAC (structured_RNA) [IRS2 RNA], in the series with PrgU-His (hairpin), the binding result is “no binding”.

B2: IRS1 RNA (structured_RNA)
RNA: GGAGCAGCGGGGAAUGUAUACAGUUCAUGUAUAUGUUCCCCGCUUUUUUUG
On to B2, for which, in the series with PrgU-His (hairpin), the binding result is given as “no binding”.

B3: IRS1 ssDNA (ssDNA)
DNA: GGAGCAGCGGGGAATGTATACAGTTCATGTATATGTTCCCCGCTTTTTTTG
Consider B3, for which the binding result with PrgU-His is listed as “no binding”.

B4: IRS1 dsDNA (dsDNA)
DNA 1: B3 DNA
DNA 2: CAAAAAAAGCGGGGAACATATACATGAACTGTATACATTCCCCGCTGCTCC
Take B4: in the series with PrgU-His (blunt), the binding result was “no binding”.
